Results: article PMC5435683, “Crystal structure of TAZ-TEAD complex reveals a distinct interaction mode from that of YAP-TEAD complex” (Scientific Reports, 2017)
Substitutions are numbered along the chain they refer to.

B1: mTAZ (residues 25-57) (domain or fragment, mouse, UniProt Q9EPK5 25-57, looked up)
chain: DTDLEALFNSVMNPKPSSWRKKILPESFFKEPD
notes: TAZ (WWTR1), mouse, residues 25-57 (helix α1, 13-residue loop, helix α2); Cloned with mTEAD4 in a modified pETDuet-1 vector; also called mouse TAZ; not shown: His6, N-terminal, cleaved
B2: mTAZ (residues 25-57) Asn33Cys (domain or fragment, mouse, UniProt Q9EPK5 25-57, looked up)
chain: B1 chain with N9C
notes: TAZ (WWTR1), mouse, residues 25-57, Asn33 replaced with cysteine for disulfide cross-linking; In the cross-linked sample Cys33 of two copies is joined by a disulfide (copper phenanthroline); in the control and DTT samples it is not; also called TAZ Asn33Cys; source: E. coli BL21 (DE3), co-expressed with mTEAD4 (210-427) Cys360Ser, purified as a complex as the wild type; not shown: His6, …

What was measured:
[1] = biological target: the molecule itself; test: crystal structure; mTAZ (25-57) with mTEAD4 (210-427), co-expressed and co-purified; hanging drops, 6% PEG 10000, 0.05 M magnesium acetate, 0.1 M tri-sodium citrate pH 5.2, 20 °C; 2.9 Å; 4 TAZ and 4 TEAD in the asymmetric unit, two binding modes (1:1 and 2:2)
[2] = biological target: T1, mTEAD4 (residues 210-427) Cys360Ser (mouse, UniProt Q62296 210-427, Cys360 replaced with serine); test: SEC; analytical gel filtration, Superdex 75 10/300 GL; control, cross-linked, and cross-linking reversed with 25 mM DTT for 1 hour at 25 °C; details: both partners purified
T1 construct: TEAD4, mouse, residues 210-427, surface-exposed Cys360 replaced with serine; also called TEAD Cys360 to serine; source: E. coli BL21 (DE3), co-expressed with mTAZ (25-57) Asn33Cys, purified as a complex as the wild type
T1 sequence (Q62296 210-427 C360S): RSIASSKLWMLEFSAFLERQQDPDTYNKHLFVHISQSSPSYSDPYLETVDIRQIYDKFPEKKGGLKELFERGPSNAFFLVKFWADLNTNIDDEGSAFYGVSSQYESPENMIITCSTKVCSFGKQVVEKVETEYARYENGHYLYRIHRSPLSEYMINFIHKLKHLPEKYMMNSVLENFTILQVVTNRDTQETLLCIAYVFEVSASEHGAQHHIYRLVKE

[3] = biological target: the molecule itself; test: cross-linking + SEC-MALS; specific disulfide cross-linking of TAZ Asn33Cys with 1.5 mM CuCl2 and 5 mM phenanthroline, 1 hour at 25 °C, stopped with 50 mM EDTA; Superdex 75 5/150 GL, 20 mM Tris pH 8, 150 mM sodium chloride

Row | Binder | binding result [1] | stoichiometry N [2] | stoichiometry N [3]
1 | B1 | binds | – | –
2 | B2 | – | 1 | 2
